The results in this text go back to article PMC8684725 (Molecular Biology of the Cell, 2021).

The series “crystal structure” concerns the molecule itself. Briefly: crystal structure.
The series “static light scattering” deals with the molecule itself. Briefly: static light scattering.

B1: WNK1SA (WNK1/S382A), WNK1 (194-483) S382A, unphosphorylated kinase domain (domain or fragment)
chain: not shown
As for B1, the binding result in the series “crystal structure” is “binds”.

B2: unphosphorylated kinase domain of WNK3, WNK3 (118-409) (domain or fragment)
chain: not shown
In the case of B2, in the series “static light scattering”, the stoichiometry N (usually the number of molecules, sites or subunits per partner or assembly) stood at 2.
